According to US20050182242A1, “Global analysis of protein activities using proteome chips” (priority 2001, published 2005):

Legend:
Details in all cases: liposome binding signal on yeast proteome chip, Cy3-streptavidin detection
PI(4)P liposomes = test: Yeast proteome chip probed with PI(4)P liposomes
From the text: (§1) To identify PI-binding proteins in yeast, liposomes were used as probes because the liposome provides the most relevant physiological condition to assay the interactors. Six types of liposomes were used. Each contains phosphatidylcholine (“PC”) with 1% (w/w) N-(biotinoyl)-1,2-dihexadecanoyl-sn-glycero-3-phosphoethanolamine, triethylammonium salt (biotin DHPE). The biotinylated lipid serves as a label that can be detected by Cy3-streptavidin (21). In addition to PC, the five other liposomes contain either 5% (w/w) PI(3)P, PI(4)P, PI(3,4)P2, PI(4,5)P2, or PI(3,4,5)P3 (FIG. 3A).
(§2) The protein-liposome interaction was assayed as follows. Appropriate amounts of each lipid in chloroform were mixed and dried under nitrogen. The lipid mixture was resuspended in TBS buffer by vortexing. The liposomes were created by sonication. Blocked proteome chips were washed three to five times in PBS buffer, and the extra liquid on the glass surface was removed by tapping the slides vertically on a KIMWIPE™. 200 μl of liposome solution was added to the proteome chip and immediately covered by a hydrophobic plastic cover slip (GRACE BIO-LAB™, USA). After trapped air bubbles were removed, the chip was incubated in a humidity chamber at RT for one hour. To remove the cover slip, the chip was immersed into large volume of PBS buffer (50 ml), so that the slip would float away. The chip was then moved to a second PBS bath (>50 ml) and washed 3×5 min with shaking at RT. After removing extra liquid on the surface of the chip, about 100 μl of Cy3 or Cy5 conjugated streptavidin (PIERCE™, USA; 1:2000 to 1:4000 dilution) was added to the surface and covered by a hydrophobic plastic cover slip (GRACE BIO-LABS™, USA). The chip was incubated for greater than 30 min in the dark at RT. The chip was then washed as described above. To completely remove the liquid on the chip, the chip was spun to dryness at 1500-2000 rpm for 5-10 min at RT.
(§3) • 1. S. Fields, Y. Kohara, D. J. Lockhart, Proc. Natl. Acad. Sci. 96, 8825 (1999); A. Goffeau et al., Science 274, 563 (1996). • 2 P. Ross-Macdonald et al., Nature 402, 413 (1999); J. L., DeRisi, V. R. Iyer, P. O. Brown, Science 278, 680 (1997); E. A. Winzeler et al., Science 285, 901 (1999). P. Uetz et al., Nature 403, 623 (2000); T. Ito et al., Proc. Natl. Acad. Sci. USA. 97, 1143 (2000) • 3 H. Zhu, M. Snyder, Curr. Opin. Chem. Biol. 5, 40 (2001). • 4 M. R. Martzen et al., Science 286, 1153 (1999). • 5 H. Zhu et al., Nat. Genet. 26, 283 (2000). • 6 G. MacBeath, S. L. Schreiber, Science 289, 1760 (2000). • 7 A. Caveman, J. Cell Sci. 113, 3543 (2000). • 8 P. Arenkov et al., Anal. Biochem 278, 123 (2000). • 9 D. A. Mitchell, T. K. Marshall, R. J. Deschenes, Yeast 9, 715 (1993). The expression vector pEGH was created by inserting an RGS-HisX6 epitope tag between the GST gene and the polycloning site of pEG(KG). The yeast ORFs were cloned using the strategy described previously (5), except every step was done in a 96-well format. Plasmid DNAs confirmed by DNA sequencing were reintroduced into both yeast (Y258) and E. coli (DH5a). […] 0.1 mM calcium was present in buffers in all subsequent steps. The chip was washed three times with PBS at RT. Cy3-conjugated streptavidin (Jackson IR, USA) (1:5000 dilution) was added to the chip and incubated for 30 min at RT. After extensive washing, the chip was spun dry and scanned using a microarray scanner; the data was subsequently acquired with the GENEPIX™ array densitometry software (Axon, USA). • 12 S. S. Hook, A. R. Means, Annu. Rev. Pharmacol. Toxicol.41, 471 (2001). • 13 M. S. Cyert, R. Kunisawa, D. Kaim, J. Thorner, Proc. Natl. Acad. Sci. USA 88, 7376 (1991). • 14 D. A. Stirling, K. A. Welch, M. J. Stark, EMBO J. 13, 4329 (1994). • 15 F. Bohl, Kruse, EMBO J. 19, 5514 (2000); E. Bertrand et al., Mol. Cell 2, 437 (1998). • 16 D. C. Winter, E. Y. Choe, R. Li, Proc. Nat. Acad Sci. USA 96, 7288 (1999). • 17 C.

PI(3,4)P2 liposomes = test: Yeast proteome chip probed with PI(3,4)P2 liposomes
From the text: as §1, §2, §3

PI(3,4,5)P3 liposomes = test: Yeast proteome chip probed with PI(3,4,5)P3 liposomes
From the text: as §1, §2, §3

[1] = system: phosphatidylcholine (PC) liposomes; test: Yeast proteome chip probed with PC liposomes
From the text: as §1, §2, §3

PI(4,5)P2 liposomes = test: Yeast proteome chip probed with PI(4,5)P2 liposomes
From the text: as §1, §2, §3

Molecule | PI(4)P (PI(4)P liposomes) | PI(3, 4)P2 (PI(3,4)P2 liposomes) | PI(3, 4, 5)P3 (PI(3,4,5)P3 liposomes) | PC [1] | PI(4, 5)P2 (PI(4,5)P2 liposomes)
GFA1: yeast GST-HisX6 fusion protein on proteome chip (protein, UniProt P14742 2-717, looked up, GST-His6 tag, yeast GST-HisX6 fusion protein on proteome chip) Glutamine--fructose-6-phosphat …: CGIFGYCNYLVERSRGEIIDTLVDGLQRLEYRGYDSTGIAIDGDEADSTFIYKQIGKVSALKEEITKQNPNRDVTFVSHCGIAHTRWATHGRPEQVNCHPQRSDPEDQFVVVHNGIITNFRELKTLLINKGYKFESDTDTECIAKLYLHLYNTNLQNGHDLDFHELTKLVLLELEGSYGLLCKSCHYPNEVIATRKGSPLLIGVKSEKKLKVDFVDVEFPEENAGQPEIPLKSNNKSFGLGPKKAREFEAGSQNANLLPIAANEFNLRHSQSRAFLSEDGSPTPVEFFVSSDAASVVKHTKKVLFLEDDDLAHIYDGELHIHRSRREVGASMTRSIQTLEMELAQIMKGPYDHFMQKEIYEQPESTFNTMRGRIDYENNKVILGGLKAWLPVVRRARRLIMIACGTSYHSCLATRAIFEELSDIPVSVELASDFLDRKCPVFRDDVCVFVSQSGETADTMLALNYCLERGALTVGIVNSVGSSISRVTHCGVHINAGPEIGVASTKAYTSQYIALVMFALSLSDDRVSKIDRRIEIIQGLKLIPGQIKQVLKLEPRIKKLCATELKDQKSLLLLGRGYQFAAALEGALKIKEISYMHSEGVLAGELKHGVLALVDENLPIIAFGTRDSLFPKVVSSIEQVTARKGHPIIICNENDEVWAQKSKSIDLQTLEVPQTVDCLQGLINIIPLQLMSYWLAVNKGIDVDFPRNLAKSVTVE | 3.05 | −8.63 | −6.53 | −1.76 | −7.62
RTG3: yeast GST-HisX6 fusion protein on proteome chip (protein, UniProt P38165 1-486, looked up, GST-His6 tag, yeast GST-HisX6 fusion protein on proteome chip) Retrograde regulation protein …: MMNNNESEAENQRLLDELMNQTKVLQETLDFSLVTPTPHHNDDYKIHGSAYPGGETPAQQHEKLSYINTHNSNDNNNLMGSQARSNSQTPTASTIYEEAESQSSYLDDMFRTSQGGRPVTQNSISSIGQGPLRSSYSMAYDSPVDRAMNTPLQQQEGLKAELPHDFLFQHGTDDTMYNLTDDLSSSLSSSINSDMMTPNTYSSSFSYNPQSLGPASVSSTYSPKVRSPSSSFRAGSFLSSSFRHGSINTPRTRHTSISSNMTENIGPGSVPKILGGLTSDEKLRRKREFHNAVERRRRELIKQKIKELGQLVPPSLLNYDDLGKQIKPNKGIILDRTVEYLQYLAEILEIQARKKKALLAKIKELEEKKSSVAALSPFTNNHHASSGQNNSENSEERIIDIRSVPNALMNEQNSKAELHNWEPPLYDSVGNHNHAGTMESHPHTNIHEELKEFLSGDLIEAEDNAKLMFGDDNSNPADYLLEFGSG | 12.19 | 0.16 | −5.29 | 5.58 | 12.41
YER046W: yeast GST-HisX6 fusion protein on proteome chip (protein, UniProt P40031 1-143, looked up, GST-His6 tag, yeast GST-HisX6 fusion protein on proteome chip) Sporulation-specific protein …: MGKNHFLKDFSALPEDVLIENERGITLLGYPLFSPKILLPHVDPPQFQRLNTENGSLIALSKNTISNFIELYPIDLSTERTAGSSSSQMTKWFVLMDYKEKYDIDDQGWCYSWNFNNSRWKSKNGLVRRRVWVRLPTTSHGLD | 19.16 | 11.62 | 5.62 | −18.20 | 6.31
BPL1: yeast GST-HisX6 fusion protein on proteome chip (protein, UniProt P48445 1-690, looked up, GST-HisX6 tag, yeast GST-HisX6 fusion protein on proteome chip) Biotin--protein ligase: MNVLVYNGPGTTPGSVKHAVESLRDFLEPYYAVSTVNVKVLQTEPWMSKTSAVVFPGGADLPYVQACQPIISRLKHFVSKQGGVFIGFCAGGYFGTSRVEFAQGDPTMEVSGSRDLRFFPGTSRGPAYNGFQYNSEAGARAVKLNLPDGSQFSTYFNGGAVFVDADKFDNVEILATYAEHPDVPSSDSGKGQSENPAAVVLCTVGRGKVLLTGPHPEFNVRFMRKSTDKHFLETVVENLKAQEIMRLKFMRTVLTKTGLNCNNDFNYVRAPNLTPLFMASAPNKRNYLQEMENNLAHHGMHANNVELCSELNAETDSFQFYRGYRASYDAASSSLLHKEPDEVPKTVIFPGVDEDIPPFQYTPNFDMKEYFKYLNVQNTIGSLLLYGEVVTSTSTILNNNKSLLSSIPESTLLHVGTIQVSGRGRGGNTWINPKGVCASTAVVTMPLQSPVTNRNISVVFVQYLSMLAYCKAILSYAPGFSDIPVRIKWPNDLYALSPTYYKRKNLKLVNTGFEHTKLPLGDIEPAYLKISGLLVNTHFINNKYCLLLGCGINLTSDGPTTSLQTWIDILNEERQQLHLDLLPAIKAEKLQALYMNNLEVILKQFINYGAAEILPSYYELWLHSNQIVTLPDHGNTQAMITGITEDYGLLIAKELVSGSSTQFTGNVYNLQPDGNTFDIFKSLIAKKVQS | 25.26 | 6.59 | 8.77 | 5.28 | 22.21
PAT1: yeast GST-HisX6 fusion protein on proteome chip (protein, UniProt P25644 2-796, looked up, GST-HisX6 tag, yeast GST-HisX6 fusion protein on proteome chip) Deadenylation-dependent …: SFFGLENSGNARDGPLDFEESYKGYGEHELEENDYLNDETFGDNVQVGTDFDFGNPHSSGSSGNAIGGNGVGATARSYVAATAEGISGPRTDGTAAAGPLDLKPMESLWSTAPPPAMAPSPQSTMAPAPAPQQMAPLQPILSMQDLERQQRQMQQQFMNFHAMGHPQGLPQGPPQQQFPMQPASGQPGPSQFAPPPPPPGVNVNMNQMPMGPVQVPVQASPSPIGMSNTPSPGPVVGATKMPLQSGRRSKRDLSPEEQRRLQIRHAKVEKILKYSGLMTPRDKDFITRYQLSQIVTEDPYNEDFYFQVYKIIQRGGITSESNKGLIARAYLEHSGHRLGGRYKRTDIALQRMQSQVEKAVTVAKERPSKLKDQQAAAGNSSQDNKQANTVLGKISSTLNSKNPRRQLQIPRQQPSDPDALKDVTDSLTNVDLASSGSSSTGSSAAAVASKQRRRSSYAFNNGNGATNLNKSGGKKFILELIETVYEEILDLEANLRNGQQTDSTAMWEALHIDDSSYDVNPFISMLSFDKGIKIMPRIFNFLDKQQKLKILQKIFNELSHLQIIILSSYKTTPKPTLTQLKKVDLFQMIILKIIVSFLSNNSNFIEIMGLLLQLIRNNNVSFLTTSKIGLNLITILISRAALIKQDSSRSNILSSPEISTWNEIYDKLFTSLESKIQLIFPPREYNDHIMRLQNDKFMDEAYIWQFLASLALSGKLNHQRIIIDEVRDEIFATINEAETLQKKEKELSVLPQRSQELDTELKSIIYNKEKLYQDLNLFLNVMGLVYRDGEISELK | 158.95 | 10.05 | 56.47 | 160.24 | 66.63
